Experiment [1] concerns the target T1, GST-human NOGO-A56 (human).
T1 construct: Expressed in E. coli BL21 from pGEX-6P1 and purified on glutathione-sepharose; the GST tag is part of the protein in the assays; also called GST-Nogo-A 5+6; GST Nogo-A 5 + 6
The experiment is described as follows: SPR (Biacore) off-rate on NOGO chip, panel of H6FL CDR H3 variants with L13FL.

Experiment [2] concerns the target T1, GST-human NOGO-A56. Briefly: direct ELISA on NOGO (GST-human NOGO-A56), CDR H3 variant of H6FL with L13FL, Abs490; coating concentration not given.
Experiment [3] has as its target T1, GST-human NOGO-A56. The experiment is described as follows: SPR (Biacore), GST-human NOGO-A56 amine-coupled to CM5, antibody flowed over, 37 C.
Experimental: (§1) GST-human NOGO-A56 was immobilised to a CM5 chip by primary amine coupling using the Biacore Wizard program designed for targeted immobilisation levels. The CM5 sensor surface was activated by passing a solution of 50 mM N-hydroxy-succinimide (NHS) and 200 mM N-ethyl-N′-dimethylaminopropyl carbonide (EDC). Then GST-human NOGO-A56 in sodium acetate buffer, pH5.0 or pH 4.5, was passed over the chip and immobilised. After immobilisation was complete any still activated esters were blocked by an injection of 1M ethanolamine hydrochloride, pH8.5.
(§2) The anti-NOGO mAbs were diluted down in HBS-EP (10 mM HEPES, pH 7.4, 150 mM NaCl, 3 mM EDTA, and 0.005% P-20 surfactant) for the BIAcore 3000 or HBS-EP+ (10 mM HEPES, pH 7.4, 150 mM NaCl, 3 mM EDTA, and 0.05% P-20 surfactant) in the case of the T100 and binding studies were carried out at range of defined antibody concentrations. All runs were referenced against a blanked sensor surface (one that had been activated and blocked as described earlier but had no addition of ligand). Analysis of binding was carried out using the BIAevaluation kinetic analysis software version 4.1 for the BIAcore 3000 and T100 kinetic analysis software version 1.0. […] Unless otherwise stated, the BIAcore experiments were performed at 25° C.
For experiment [4], the target named is T1, GST-human NOGO-A56. Briefly: reverse format ELISA: antibody captured on anti-human IgG, GST-Nogo-A 5+6 detected with anti-GST-HRP; the x axis is the antibody concentration.
Experiment [5] concerns the target T2, Squirrel monkey NOGO (A56) plus GST tag (squirrel monkey).
T2 construct: also called GST-NOGO-A56 from squirrel monkey
Briefly: direct ELISA on GST-NOGO-A56 from squirrel monkey, Abs490.

Experiment [6] has as its target T3, Cynomolgus monkey NOGO (A56) plus GST tag (cynomolgus monkey).
T3 construct: also called cynomolgus Nogo-A; GST-NOGO-A56 from cynomolgus
The experiment is described as follows: direct ELISA on GST-NOGO-A56 from cynomolgus, Abs490.

The target of experiment [7] is T4, Marmoset NOGO (A56) plus GST tag (marmoset).
T4 construct: also called GST-NOGO-A56 from marmoset
T4 sequence (chain, as listed by the source limits assumed): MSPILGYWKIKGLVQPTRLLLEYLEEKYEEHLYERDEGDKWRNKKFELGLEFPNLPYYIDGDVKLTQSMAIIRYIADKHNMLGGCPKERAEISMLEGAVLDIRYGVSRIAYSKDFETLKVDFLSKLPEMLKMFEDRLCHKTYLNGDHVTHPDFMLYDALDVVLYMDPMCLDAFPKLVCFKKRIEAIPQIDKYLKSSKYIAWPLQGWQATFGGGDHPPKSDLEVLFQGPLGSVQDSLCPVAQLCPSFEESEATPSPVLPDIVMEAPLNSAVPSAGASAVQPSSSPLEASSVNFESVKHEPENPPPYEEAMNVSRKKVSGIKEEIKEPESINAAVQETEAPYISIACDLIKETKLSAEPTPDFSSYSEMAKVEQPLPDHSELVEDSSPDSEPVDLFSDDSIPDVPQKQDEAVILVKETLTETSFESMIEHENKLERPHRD
Briefly: direct ELISA on GST-NOGO-A56 from marmoset, Abs490.

Experiment [8] deals with T1, GST-human NOGO-A56. The experiment is described as follows: SPR (Biacore T100), antigen amine-coupled to CM5, antibody 0.125-8 nM; mean of six runs in duplicate (SD in brackets).
Text: In the first approach, the recombinant Nogo-A was coupled to the surface of the chip and anti-Nogo-A antibodies passed over this surface. In the second approach, Protein A was used to capture the antibody onto the surface of the chip over which the recombinant GST-human Nogo-A56 was passed.
The antigen was bound to the CM5 chip by primary amine coupling. […] The values show the mean and standard deviation (in brackets) of six independent runs carried out in duplicate. Each completed data set was analysed independently prior to the calculation of mean and standard deviation.
Experiment [9] concerns the target T1, GST-human NOGO-A56. The experiment is described as follows: SPR (Biacore), GST-human NOGO-A56 amine-coupled to CM5, antibody flowed over, 25 C.
Experimental: as §1, §2
The target of experiment [10] is T1, GST-human NOGO-A56. Briefly: direct ELISA, GST-Nogo-A 5+6 coated at 1.0 mcg/ml, anti-human IgG-HRP, Abs490.
Experimental: (§3) Wells were rinsed once with TBS+0.05% Tween (TBST) then incubated with 2% BSA in TBST to block non-specific binding sites at room temperature for 1 hour. Antibodies were diluted in TBST+2% BSA to 10 μg/ml and ½ dilutions made from this. Antibodies were added to wells in duplicate and incubated at room temperature for 1 hour. […] The wells were washed three times with TBST and then incubated with 100 μl OPD peroxidase substrate (Sigma) per well for 10 minutes. The colour reaction was stopped by the addition of 25 μl concentrated H₂SO₄. Optical density at 490 nm was measured using a plate reader. Background values read from wells with no antibody were subtracted.
In experiment [11] the target is T1, GST-human NOGO-A56. The experiment is described as follows: direct ELISA, GST-human NOGO-A56 coated at 1.0 mcg/ml, purified antibody, OD490.
Experimental: as §3
Experiment [12] concerns the target T1, GST-human NOGO-A56. The experiment is described as above. The source holds these as a separate data set.
Experimental: as §3
For experiment [13], the target named is T5, Rat NOGO (A56) plus GST tag (rat).
T5 construct: also called GST-NOGO-A56 from rat
T5 sequence (chain, as listed by the source limits assumed): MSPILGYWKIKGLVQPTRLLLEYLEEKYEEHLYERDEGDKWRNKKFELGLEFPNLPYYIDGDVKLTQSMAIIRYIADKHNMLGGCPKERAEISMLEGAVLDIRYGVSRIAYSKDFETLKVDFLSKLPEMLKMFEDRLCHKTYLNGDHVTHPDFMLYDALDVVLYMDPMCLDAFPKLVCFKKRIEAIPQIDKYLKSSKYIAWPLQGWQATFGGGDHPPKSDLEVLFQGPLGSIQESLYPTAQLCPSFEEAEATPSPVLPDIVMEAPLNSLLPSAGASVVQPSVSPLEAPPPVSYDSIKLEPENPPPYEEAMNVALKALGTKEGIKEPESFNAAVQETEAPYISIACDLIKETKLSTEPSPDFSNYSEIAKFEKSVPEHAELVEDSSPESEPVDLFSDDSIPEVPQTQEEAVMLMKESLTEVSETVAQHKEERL
The experiment is described as follows: direct ELISA on GST-NOGO-A56 from rat, Abs490.

Experiment [14] deals with T1, GST-human NOGO-A56. Briefly: SPR (Biacore T100), reverse format: antibody captured by Protein A, GST Nogo-A 5+6 0.125-8 nM flowed over; mean (SD in brackets).
Text: Protein A was immobilised to approximately 4000RUs by primary amine and used to capture 200-300RUs of the sample antibodies. […] The values show the mean and standard deviation (in brackets) of three independent runs in duplicate. Each data set was independently analysed prior to the calculation of the mean and standard deviation.
Experiment [15] deals with T6, native human Nogo-A of IMR32 neuroblastoma cells (intracellular) (human, UniProt Q9NQC3 1-1192).
T6 construct: whole, on cells; Detected inside permeabilised, fixed cells (ER-resident), not on the cell surface; also called intracellular Nogo-A; native Nogo-A
T6 sequence (looked up): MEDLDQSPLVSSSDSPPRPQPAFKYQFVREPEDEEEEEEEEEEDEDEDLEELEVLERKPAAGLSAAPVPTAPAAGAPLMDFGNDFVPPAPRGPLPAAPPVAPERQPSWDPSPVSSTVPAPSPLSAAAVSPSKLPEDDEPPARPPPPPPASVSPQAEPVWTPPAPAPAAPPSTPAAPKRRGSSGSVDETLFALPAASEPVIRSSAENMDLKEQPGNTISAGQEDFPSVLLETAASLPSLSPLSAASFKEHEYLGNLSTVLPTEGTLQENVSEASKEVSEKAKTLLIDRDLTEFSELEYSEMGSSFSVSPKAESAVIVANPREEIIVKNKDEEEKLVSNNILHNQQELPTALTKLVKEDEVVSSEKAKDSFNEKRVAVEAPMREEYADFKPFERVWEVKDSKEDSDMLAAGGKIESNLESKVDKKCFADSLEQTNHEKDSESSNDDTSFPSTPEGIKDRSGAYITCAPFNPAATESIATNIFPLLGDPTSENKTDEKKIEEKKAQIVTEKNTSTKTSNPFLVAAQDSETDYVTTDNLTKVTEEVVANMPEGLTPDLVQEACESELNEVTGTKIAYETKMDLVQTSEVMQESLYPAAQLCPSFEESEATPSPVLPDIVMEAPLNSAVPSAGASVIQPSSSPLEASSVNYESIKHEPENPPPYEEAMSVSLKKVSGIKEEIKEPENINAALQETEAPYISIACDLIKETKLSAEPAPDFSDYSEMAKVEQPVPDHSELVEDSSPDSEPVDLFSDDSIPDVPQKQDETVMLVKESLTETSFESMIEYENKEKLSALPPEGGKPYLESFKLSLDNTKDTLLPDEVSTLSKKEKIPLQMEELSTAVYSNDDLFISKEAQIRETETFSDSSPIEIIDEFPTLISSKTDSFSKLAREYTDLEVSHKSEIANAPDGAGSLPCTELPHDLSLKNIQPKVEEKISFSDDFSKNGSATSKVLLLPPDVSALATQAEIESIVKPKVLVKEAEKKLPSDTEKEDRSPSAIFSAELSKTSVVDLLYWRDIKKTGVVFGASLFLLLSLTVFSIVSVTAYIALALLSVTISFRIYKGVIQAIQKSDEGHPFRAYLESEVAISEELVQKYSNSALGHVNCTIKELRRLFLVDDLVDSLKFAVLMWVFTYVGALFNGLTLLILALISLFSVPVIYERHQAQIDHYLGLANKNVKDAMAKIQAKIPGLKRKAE
The experiment is described as follows: flow cytometry on permeabilised, fixed IMR32 cells (intracellular Nogo-A), PE anti-human IgG, MFI.
Experimental: In the second assay, the ability of the humanised antibodies to bind native Nogo-A was assessed using a human neuroblastoma cell line—IMR32. This cell line is characterised by high intracellular/low cell surface levels of Nogo-A protein. In an attempt to increase the binding signal, the assay was set-up to detect intracellular Nogo-A (ER-resident). IMR32 cells were permeabilised and fixed prior to staining with the anti-Nogo-A humanised antibodies. Binding of the antibodies to Nogo-A was detected using an anti-human IgG-PE labelled secondary (Sigma, #P8047).

Experiment [16] concerns the target T1, GST-human NOGO-A56. Briefly: direct ELISA, human NOGO-A (GST-human NOGO-A56) coated at 1 ug/ml, Abs490.
Experiment [17] concerns the target T1, GST-human NOGO-A56. Briefly: SPR (Biacore), GST-human NOGO-A56 amine-coupled to CM5, antibody flowed over, 25 C. This is another data set of the same source.
Experimental: as §1, §2
Experiment [18] deals with T1, GST-human NOGO-A56. The description is as above. The source holds these as a separate data set.
The target of experiment [19] is T1, GST-human NOGO-A56. Briefly: SPR (Biacore) off-rate ranking on GST-human NOGO-A56 chip, one experiment.
Experimental: as §1
The GST-human NOGO-A56 chip was prepared as for kinetic analysis. Cell supernatants where taken directly from transient transfections of CHO-K1 cells. These were passed directly over the sensor surface and the interaction measured. A mock transfected cell supernatant was used for double referencing to remove any artefacts due to the tissue culture media. All runs were referenced against a blanked sensor surface (one that had been activated and blocked as described earlier but had no addition of ligand). Analysis of binding was carried out using the BIAevaluation kinetic analysis software version 4.1.
Experiment [20] addresses T1, GST-human NOGO-A56. Briefly: competition ELISA on coated GST-Nogo-A 5+6; competitor 2A10 pre-mixed, bound 2A10 detected with anti-mouse IgG-HRP.
Experiment [21] deals with T7, peptide 7 (biotin-SGSG-VLPDIVMEAPLNSAVP) (human, N-terminal biotin).
T7 peptide: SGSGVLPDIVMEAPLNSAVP
Briefly: peptide ELISA: biotinylated 16-mer peptide on streptavidin, antibody at 5 ug/ml, kappa-chain peroxidase conjugate, Abs490.
Experimental: (§4) Streptavidin at 5 μg/ml in sterile water was coated onto Nunc immunosorp plates (100 μl per well) at 37° C. overnight. The plates were rinsed 3 times with PBS containing 0.05% Tween (PBST) then blocked with 3% BSA in PBST at 4° C. overnight. The plates were washed 3 times with PBST. Peptides were then added to the wells at a concentration of approximately 10 μg/ml (diluted in 3% BSA in PBST) and incubated at room temperature for 1 hour. The plates were washed 3 times with PBST then incubated for 1 hour with anti-NOGO antibodies diluted to 5 μg/ml in 3% BSA in PBST. […] The plates were washed 3 times with PBST and then incubated with 100 μl OPD peroxidase substrate (Sigma) per well for 10 minutes. The colour reaction was stopped by the addition of 50 μl 3 molar H₂SO₄. Absorbance at 490 nm was measured using a plate reader.

The target in experiment [22] is T8, peptide 6 (biotin-SGSG-TPSPVLPDIVMEAPLN) (human, N-terminal biotin).
T8 peptide: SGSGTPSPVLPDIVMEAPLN
The description is as above.
Experimental: as §4

T1 sequence (chain, as listed by the source limits assumed): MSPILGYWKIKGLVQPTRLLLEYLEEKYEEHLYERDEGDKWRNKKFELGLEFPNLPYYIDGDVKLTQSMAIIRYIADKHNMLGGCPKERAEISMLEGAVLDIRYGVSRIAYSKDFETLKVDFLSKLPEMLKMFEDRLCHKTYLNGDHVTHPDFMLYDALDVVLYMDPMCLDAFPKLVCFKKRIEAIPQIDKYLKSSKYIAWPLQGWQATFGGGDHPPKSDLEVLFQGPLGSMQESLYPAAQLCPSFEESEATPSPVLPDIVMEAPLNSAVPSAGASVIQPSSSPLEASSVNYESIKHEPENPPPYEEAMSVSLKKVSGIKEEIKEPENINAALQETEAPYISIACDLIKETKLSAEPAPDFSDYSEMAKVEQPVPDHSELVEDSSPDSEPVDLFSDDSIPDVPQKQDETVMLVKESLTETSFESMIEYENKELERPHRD
T2 sequence (chain, as listed by the source limits assumed): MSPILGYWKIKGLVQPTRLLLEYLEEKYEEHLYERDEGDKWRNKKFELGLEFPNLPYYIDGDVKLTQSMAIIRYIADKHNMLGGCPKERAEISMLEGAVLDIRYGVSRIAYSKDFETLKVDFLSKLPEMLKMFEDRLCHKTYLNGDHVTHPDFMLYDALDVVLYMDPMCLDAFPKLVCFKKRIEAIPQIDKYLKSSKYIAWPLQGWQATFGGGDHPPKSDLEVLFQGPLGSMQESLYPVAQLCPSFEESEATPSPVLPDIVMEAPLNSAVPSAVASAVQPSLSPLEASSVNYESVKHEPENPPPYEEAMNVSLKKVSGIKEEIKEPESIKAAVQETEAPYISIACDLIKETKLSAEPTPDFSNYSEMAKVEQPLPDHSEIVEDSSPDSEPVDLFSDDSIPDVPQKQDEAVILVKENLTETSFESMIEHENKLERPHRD
T3 sequence (chain, as listed by the source limits assumed): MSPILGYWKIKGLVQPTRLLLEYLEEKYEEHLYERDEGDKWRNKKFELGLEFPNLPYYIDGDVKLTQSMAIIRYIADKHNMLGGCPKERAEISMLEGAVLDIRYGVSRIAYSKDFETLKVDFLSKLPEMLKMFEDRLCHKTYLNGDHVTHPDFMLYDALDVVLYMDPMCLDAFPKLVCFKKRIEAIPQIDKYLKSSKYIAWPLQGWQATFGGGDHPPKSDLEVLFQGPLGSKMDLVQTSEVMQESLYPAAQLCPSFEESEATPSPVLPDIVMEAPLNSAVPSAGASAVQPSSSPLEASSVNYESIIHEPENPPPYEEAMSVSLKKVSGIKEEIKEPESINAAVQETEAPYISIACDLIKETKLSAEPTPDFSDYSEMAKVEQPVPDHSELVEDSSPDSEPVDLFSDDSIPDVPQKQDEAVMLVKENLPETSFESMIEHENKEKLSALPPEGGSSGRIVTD

B1: H6L13 variant with VH CDR3 WQGY (antibody, human IgG1, kappa, V domains shown)
VH: QVQLVQSGAEVKKPGASVKVSCKASGYTFTSYWMHWVRQAPGQGLEWIGNINPSNGGTNYNEKFKSRATMTRDTSTSTAYMELSSLRSEDTAVYYCELWQGYWGQGTLVTVSS
VL: DIVMTQSPLSLPVTLGQPASISCRSSKSLLYKDGKTYLNWFQQRPGQSPQLLIYLMSTRASGVPDRFSGGGSGTDFTLKISRVEAEDVGVYYCQQLVEYPLTFGQGTKLEIKR
notes: Single point variant of H6FL with L13FL
With B1, the off-rate constant (koff) with GST-human NOGO-A56 [1] was found to be 0.0198 s⁻¹. In addition, the “EC50 (read off the curve)” value with GST-human NOGO-A56 [2] was about 0.1 µg/mL.

B2: H20L16 (antibody, human IgG1, kappa, V domains shown)
VH: QVQLVQSGAEVKKPGASVKVSCKASGYTFTSYWMHWVRQAPGQGLEWIGNINPSNGGTNYNEKFKSKATMTRDTSTSTAYMELSSLRSEDTAVYYCELGQGYWGQGTLVTVSS
VL: DIVMTQSPLSNPVTLGQPVSISCRSSKSLLYKDGKTYLNWFLQRPGQSPQLLIYLMSTRASGVPDRFSGGGSGTDFTLKISRVEAEDVGVYYCQQLVEYPLTFGQGTKLEIKR
notes: IgG1 (L235A, G237A) / kappa; CAMPATH-1H signal (1-19) left out
With B2, the equilibrium dissociation constant (Kd) with GST-human NOGO-A56 [3] was found to be 1.51 nM; with GST-human NOGO-A56 [8], 1.8 nM; with GST-human NOGO-A56 [9], 1.16 nM; with GST-human NOGO-A56 [14], 0.31 nM. Further, the values for the koff with GST-human NOGO-A56 [3] and in the experiment with GST-human NOGO-A56 [9] were 0.0108 s⁻¹ and 0.00542 s⁻¹, respectively. For the same molecule, the figures for the kon in the experiment with GST-human NOGO-A56 [3] and with GST-human NOGO-A56 [9] were 7.17e+06 M⁻¹ s⁻¹ and 4.69e+06 M⁻¹ s⁻¹, respectively. The “EC50 (read off the curve)” value is about 0.08 µg/mL with GST-human NOGO-A56 [4]; about 0.05 µg/mL in experiment [5]; about 0.09 µg/mL in experiment [6]; about 0.07 µg/mL in experiment [7]; about 0.1 µg/mL in the experiment with GST-human NOGO-A56 [10]; about 0.09 µg/mL in the experiment with GST-human NOGO-A56 [11]. The figures for the “EC50 (read off the curve)” value (with GST-human NOGO-A56 [12]; in experiment [13]) were about 0.1 µg/mL and about 0.08 µg/mL, respectively. The binding result in [15] is “binds”.

B3: H26L13 (antibody, human IgG1, kappa, V domains shown)
VH: QVQLVQSGAEVKKPGASVKVSCKASGYTFTSYWMHWVRQAPGQGLEWIGNINPSNGGTNYNEKFKSRATMTRDTSTSTAYMELSSLRSEDTAVYYCELMQGYWGQGTLVTVSS
VL: DIVMTQSPLSLPVTLGQPASISCRSSKSLLYKDGKTYLNWFQQRPGQSPQLLIYLMSTRASGVPDRFSGGGSGTDFTLKISRVEAEDVGVYYCQQLVEYPLTFGQGTKLEIKR
notes: H26 FL is H6 FL with G95M (Kabat); IgG1 (L235A, G237A) / kappa; CAMPATH-1H signal (1-19) left out; also called H6(G95M)L13; H6L13 with VH CDR3 MQGY
On to B3, for which the “EC50 (read off the curve)” value with GST-human NOGO-A56 [16] was about 0.03 µg/mL; with GST-human NOGO-A56 [12], about 0.1 µg/mL. In addition, the koff with GST-human NOGO-A56 [1] came out at 0.00485 s⁻¹; with GST-human NOGO-A56 [17] it was 0.00288 s⁻¹; with GST-human NOGO-A56 [18], 0.00311 s⁻¹; with GST-human NOGO-A56 [19], 0.00431 s⁻¹. Also, the dissociation constant (Kd) with GST-human NOGO-A56 [17] was determined as 0.87 nM; with GST-human NOGO-A56 [18], 0.963 nM. The kon was determined as 3.45e+06 M⁻¹ s⁻¹ with GST-human NOGO-A56 [17] and 3.23e+06 M⁻¹ s⁻¹ in the experiment with GST-human NOGO-A56 [18].

B4: H27L16 (antibody, human IgG1, kappa, V domains shown)
VH: QVQLVQSGAEVKKPGASVKVSCKASGYTFTSYWMHWVKQRPGQGLEWIGNINPSNGGTNYNEKFKSKATLTVDKSTSTAYMELSSLRSEDTAVYYCELMQGYWGQGTLVTVSS
VL: DIVMTQSPLSNPVTLGQPVSISCRSSKSLLYKDGKTYLNWFLQRPGQSPQLLIYLMSTRASGVPDRFSGGGSGTDFTLKISRVEAEDVGVYYCQQLVEYPLTFGQGTKLEIKR
notes: IgG1 (L235A, G237A) / kappa; CAMPATH-1H signal (1-19) left out; also called H27FL L16FL
With B4, the Kd was 0.426 nM with GST-human NOGO-A56 [3]; 0.56 nM with GST-human NOGO-A56 [8]; 0.38 nM in the experiment with GST-human NOGO-A56 [9]; 0.194 nM with GST-human NOGO-A56 [18]; 0.31 nM with GST-human NOGO-A56 [14]. Moreover, the koff in the experiment with GST-human NOGO-A56 [3] is 0.00306 s⁻¹; in the experiment with GST-human NOGO-A56 [9], 0.0015 s⁻¹; with GST-human NOGO-A56 [18], 0.00121 s⁻¹. For the same molecule, the on-rate constant (kon) in the experiment with GST-human NOGO-A56 [3] came to 7.18e+06 M⁻¹ s⁻¹; with GST-human NOGO-A56 [9] it was 3.94e+06 M⁻¹ s⁻¹; in the experiment with GST-human NOGO-A56 [18] it was 6.24e+06 M⁻¹ s⁻¹. Besides, the “EC50 (read off the curve)” value with GST-human NOGO-A56 [16] was about 0.06 µg/mL; in the experiment with GST-human NOGO-A56 [4] it was about 0.1 µg/mL; with GST-human NOGO-A56 [10], about 0.04 µg/mL; with GST-human NOGO-A56 [11], about 0.06 µg/mL. The “IC50 (read off the curve)” value with GST-human NOGO-A56 [20] is about 5 µg/mL. Besides, the binding result in experiment [15] is “binds”.

B5: 2A10 (murine monoclonal antibody) (antibody, V domains shown)
VH: QVQLQQPGTELVKPGASVKLSCKASGYTFTSYWMHWVKQRPGQGLEWIGNINPSNGGTNYNEKFKSKATLTVDKSSSTAYMQLSSLTSEDSAVYYCELGQGYWGQGTTLTVSS
VL: DIVITQDELSNPVTSGESVSISCRSSKSLLYKDGKTYLNWFLQRPGQSPQLLIYLMSTRASGVSDRFSGSGSGTDFTLEISRVKAEDVGVYYCQQLVEYPLTFGAGTKLELK
notes: Mouse monoclonal; also called parental antibody 2A10; murine donor antibody 2A10
As for B5, the binding result in experiment [21] and in experiment [22] was “binds” in each case.
